Source: PMC5780510, “Insights into the molecular mechanism of dehalogenation catalyzed by D-2-haloacid dehalogenase from crystal structures” (Scientific Reports, 2018)

Target: the molecule itself
Experiment: crystal structure; hanging-drop vapour diffusion, 0.1 M MES pH 6.43, 4% PEG20000, 10% PEG8000, potassium sodium tartrate, 277 K; four monomers in each asymmetric unit

B1: D-2-haloacid dehalogenase HadD AJ1 from Pseudomonas putida AJ1/23, wild type (enzyme)
chain: MNLPDNSIHLQLPRPVCEAIIRPVPEHRADQELSEIYRDLKATFGVPWVGVITQAVAYYRPFFAEAWRRFAPSAKTHFFERASDDIRIRSWELMGQSFVIEGQTDRLREMGYSVREIGQIRAVLDIFDYGNPKYLIFATAIKEGLLSGRTFGGAAGDARCHFPRSPICQIDPIPVMVEEHHAGGTLSQVYADIKQTLQLPFINSDYKAMARWPSYLEQAWGALKPCIDTPAYQAGRFDINARALAALDALPTAYRMSRDDALQAGLSEAQTDELIQVISLFQWMLSGLVLNVTHFKQQALK
notes: D-2-haloacid dehalogenase HadD AJ1, Pseudomonas putida strain AJ1/23; the 909 bp hadd aj1 gene (ENA AAA25831.1) subcloned into pET-28a between NcoI and XhoI; Homotetramer in the crystal; it gives no residue limits; also called WT; D-DEX
  stoichiometry N: 4
